Results taken from patent US20140377280A1 (ROCKEFELLER UNIVERSITY, published 2014).

Biological target: T1, α2,6-sialylated recombinant human IgG1 Fc (sFc), prepared by papain cleavage of full-length IDEC-114 antibody … (human, UniProt P0DOX5 227-449 = IgG part, limits assumed, N-linked glycan at Asn297 with terminal α2,6-linked sialic acid (in vitro galactosylation and sialylation))
T1 construct: also called α2,6-sFc; α2,6 sFc
Assay: SPR steady-state affinity, immobilized DC-SIGN ECD
Procedure: To determine the interaction between various recombinant Fc preparations to soluble hDC-SIGN or hFcγRs, steady-state affinity measurements were recorded on a Biacore T100 sensor. Receptors, diluted to 20-50 μg/mL in NaOAc pH 5.0, were immobilized on CMS chips at high density (2000 RU) by standard amine coupling. For hDC-SIGN interactions, injections were performed at a flow rate of 20 μL/min with commercially available HBS-P+ buffer adjusted to pH 9.0 and supplemented with 2 mM CaCl₂ and 500 mM NaCl. For hFcγRs interactions, injections were performed at a flow rate of 20 μL/min with commercially available HBS-EP+ buffer. Surfaces were regenerated with a short pulse of 50 mM NaOH. Kd values were calculated after subtraction of background binding to a control flow cell using Biacore Evaluation software.

B1: soluble human DC-SIGN extracellular domain with N-terminal strep tag (receptor, UniProt Q9NNX6 59-404, looked up)
chain: QVSKVPSSISQEQSRQDAIYQNLTQLKAAVGELSEKSKLQEIYQELTQLKAAVGELPEKSKLQEIYQELTRLKAAVGELPEKSKLQEIYQELTWLKAAVGELPEKSKMQEIYQELTRLKAAVGELPEKSKQQEIYQELTRLKAAVGELPEKSKQQEIYQELTRLKAAVGELPEKSKQQEIYQELTQLKAAVERLCHPCPWEWTFFQGNCYFMSNSQRNWHDSITACKEVGAQLVVIKSAEEQNFLQLQSSRSNRFTWMGLSDLNQEGTWQWVDGSPLLPSFKQYWNRGEPNNVGEEDCAEFSGNGWNDDKCNLAKFWICKKSAASCSRDEEQFLSPAPATPNPPPA
notes: extracellular domain; also called DC-SIGN ECD; soluble hDC-SIGN; not shown: N-terminal strep tag
A Kd of ~1.3 µM was found for B1 in this work.
